Measured values taken from patent US20120064078.

Biological target: Thr90 phosphorylated Hsp90α (pT90-Hsp90α), recombinant human Hsp90α phosphorylated by recombinant protein kinase A

B1: recombinant human PP5 protein (protein phosphatase 5) (protein)
chain: MAMAEGERTECAEPPRDEPPADGALKRAEELKTQANDYFKAKDYENAIKFYSQAIELNPSNAIYYGNRSLAYLRTECYGYALGDATRAIELDKKYIKGYYRRAASNMALGKFRAALRDYETVVKVKPHDKDAKMKYQECNKIVKQKAFERAIAGDEHKRSVVDSLDIESMTIEDEYSGPKLEDGKVTISFMKELMQWYKDQKKLHRKCAYQILVQVKEVLSKLSTLVETTLKETEKITVCGDTHGQFYDLLNIFELNGLPSETNPYIFNGDFVDRGSFSVEVILTLFGFKLLYPDHFHLLRGNHETDNMNQIYGFEGEVKAKYTAQMYELFSEVFEWLPLAQCINGKVLIMHGGLFSEDGVTLDDIRKIERNRQPPDSGPMCDLLWSDPQPQNGRSISKRGVSCQFGPDVTKAFLEENNLDYIIRSHEVKAEGYEVAHGGRCVTVFSAPNYCDQMGNKASYIHLQGSDLRPQFHQFTAVPHPNVKPMAYANTLLQLGMM
release of free phosphate (non-radioactive serine/threonine phosphatase assay): the release of free phosphate was also significantly increased, P value<0.005
